These results are taken from US20030099654.

The test system of series [1] is 125I-prothrombin.
Series [2] has as its target 125I-prothrombin. This is another data set of the same source.

Human Factor Xa: the “prothrombin cleavage assay (125I-prothrombin, 10% SDS-PAGE, autoradiography); positive control” value in the series on 125I-prothrombin [1] is “Addition of human factor X in the presence of calcium and factor V produced cleavage products corresponding to known derivatives of prothrombin”.

B1: mfgl2 fusion protein (murine fgl2 with six histidine residues followed by an enterokinase site at the N-terminus) (protein)
chain: VEEHNLTEGLEDASAQAACPARLEGSGRCEGSQCPFQLTLPTLTIQLPRQLGSMEEVLKEVRTLKEAVDSLKKSCQDCKLQADDHRDPGGNGGNGAETAEDSRVQELESQVNKLSSELKNAKDQIQGLQGRLETLHLVNMNNIENYVDNKVANLTVVVNSLDGKCSKCPSQEHMQSQPVQHLIYKDCSDHYVLGRRSSGAYRVTPDHRNSSFEVYCDMETMGGGWTVLQARLDGSTNFTREWKDYKAGFGNLEREFWLGNDKIHLLTKSKEMILRIDLEDFNGLTLYALYDQFYVANEFLKYRLHIGNYNGTAGDALRFSRHYNHDLRFFTTPDRDNDRYPSGNCGLYYSSGWWFDSCLSANLNGKYYHQKYKGVRNGIFWGTWPGINQAQPGGYKSSFKQAKMMIRPKNFKP
Regarding B1, in the series with 125I-prothrombin [2], the “one-stage clotting assay (PCA) in coagulation factor-deficient human plasmas” value is on record as “The PCA expressed by recombinant virus infected cells was independent of all factors except 11 (prothrombin)” and the “prothrombin cleavage assay (125I-prothrombin, 10% SDS-PAGE, autoradiography); purified mfgl2 fusion protein” value is listed as “incubation of 1251-prothrombin with uninfected High 5 cell homogenates or purified protein exhibited no prothrombin cleavage”.
